Reference: publication PMC3630801 (Biochemistry, 2013)
Where two headings read alike, the source gives them in different places. Values belong to the binder of their own block, whether it stands above or below them.

What was measured:
[1] = target: T1, BtuB, Escherichia coli vitamin B12 transporter (wild type) (Escherichia coli, UniProt P06129 21-614); test: continuous-wave EPR lineshape
T1 sequence (looked up): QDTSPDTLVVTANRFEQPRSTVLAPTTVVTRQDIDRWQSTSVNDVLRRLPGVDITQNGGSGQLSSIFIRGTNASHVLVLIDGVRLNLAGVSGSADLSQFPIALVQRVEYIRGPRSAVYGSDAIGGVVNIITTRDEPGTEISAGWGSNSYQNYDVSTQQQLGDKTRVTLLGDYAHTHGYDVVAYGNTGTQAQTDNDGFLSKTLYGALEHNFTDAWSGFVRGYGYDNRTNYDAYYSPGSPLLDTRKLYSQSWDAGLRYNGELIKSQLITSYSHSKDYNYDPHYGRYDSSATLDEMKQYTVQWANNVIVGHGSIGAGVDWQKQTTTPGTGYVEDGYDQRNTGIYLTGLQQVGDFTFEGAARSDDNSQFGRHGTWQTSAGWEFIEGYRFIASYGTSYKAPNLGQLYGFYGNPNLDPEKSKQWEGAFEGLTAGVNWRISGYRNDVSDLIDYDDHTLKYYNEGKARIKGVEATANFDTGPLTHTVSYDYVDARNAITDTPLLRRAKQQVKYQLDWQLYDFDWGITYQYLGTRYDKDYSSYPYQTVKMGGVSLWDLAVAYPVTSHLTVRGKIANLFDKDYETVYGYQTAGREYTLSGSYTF

DEER = target: the molecule itself; test: DEER
[2] = target: T2, FecA, Escherichia coli ferric citrate transporter (Escherichia coli, UniProt P13036 34-774); test: DEER
T2 sequence (looked up): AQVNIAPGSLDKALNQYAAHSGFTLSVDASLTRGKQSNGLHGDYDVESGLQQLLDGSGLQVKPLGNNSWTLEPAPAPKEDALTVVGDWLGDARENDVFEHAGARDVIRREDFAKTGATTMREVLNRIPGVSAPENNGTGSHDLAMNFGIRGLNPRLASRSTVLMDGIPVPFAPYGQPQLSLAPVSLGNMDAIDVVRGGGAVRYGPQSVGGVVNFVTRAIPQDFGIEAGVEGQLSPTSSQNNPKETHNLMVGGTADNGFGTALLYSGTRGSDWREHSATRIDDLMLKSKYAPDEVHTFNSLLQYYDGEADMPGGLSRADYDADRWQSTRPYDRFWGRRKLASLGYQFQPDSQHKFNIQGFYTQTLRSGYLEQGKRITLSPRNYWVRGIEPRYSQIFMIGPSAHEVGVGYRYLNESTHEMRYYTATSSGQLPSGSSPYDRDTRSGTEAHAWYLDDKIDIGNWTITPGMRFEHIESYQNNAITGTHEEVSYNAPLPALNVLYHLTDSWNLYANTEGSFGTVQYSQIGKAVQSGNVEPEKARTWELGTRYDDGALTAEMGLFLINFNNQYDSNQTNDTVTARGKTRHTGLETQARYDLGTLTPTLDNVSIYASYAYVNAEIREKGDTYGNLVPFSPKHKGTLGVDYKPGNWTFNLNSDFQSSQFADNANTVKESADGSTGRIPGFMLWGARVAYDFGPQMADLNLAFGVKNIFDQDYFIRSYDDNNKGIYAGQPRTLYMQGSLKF

[3] = target: T3, FhuA, Escherichia coli ferrichrome transporter (Escherichia coli, UniProt P06971 34-747); test: DEER
T3 sequence (looked up): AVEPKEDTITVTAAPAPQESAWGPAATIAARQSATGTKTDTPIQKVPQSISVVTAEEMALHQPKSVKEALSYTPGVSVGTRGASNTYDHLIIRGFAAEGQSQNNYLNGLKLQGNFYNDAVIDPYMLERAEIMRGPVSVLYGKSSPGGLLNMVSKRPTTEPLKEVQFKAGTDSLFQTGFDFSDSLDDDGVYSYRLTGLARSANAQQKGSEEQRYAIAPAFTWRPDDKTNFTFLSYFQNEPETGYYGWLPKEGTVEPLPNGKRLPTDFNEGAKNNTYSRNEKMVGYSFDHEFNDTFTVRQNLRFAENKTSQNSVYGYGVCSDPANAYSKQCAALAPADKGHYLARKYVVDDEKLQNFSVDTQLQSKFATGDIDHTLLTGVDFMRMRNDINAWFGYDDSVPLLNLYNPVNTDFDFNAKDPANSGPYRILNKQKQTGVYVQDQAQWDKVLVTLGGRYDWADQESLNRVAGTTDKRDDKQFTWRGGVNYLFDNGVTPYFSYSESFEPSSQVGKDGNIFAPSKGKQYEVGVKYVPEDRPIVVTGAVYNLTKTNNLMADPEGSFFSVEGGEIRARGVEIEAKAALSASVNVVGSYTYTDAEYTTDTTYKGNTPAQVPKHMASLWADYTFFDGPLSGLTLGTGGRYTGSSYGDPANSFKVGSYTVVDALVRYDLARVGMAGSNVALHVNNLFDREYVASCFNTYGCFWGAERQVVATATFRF

[4] = target: T1, BtuB, Escherichia coli vitamin B12 …; test: fluorescence polarisation
[5] = target: T3, FhuA, Escherichia coli ferrichrome …; test: fluorescence polarisation
[6] = target: T1, BtuB, Escherichia coli vitamin B12 …; test: fluorescence polarisation; remark: listed apart in the source
[7] = target: T3, FhuA, Escherichia coli ferrichrome …; test: fluorescence polarisation; remark: listed apart in the source

binding result [1]: binds
B1: TonB_(ΔTMD) R187R1 (spin-labeled) (domain or fragment)
chain: not shown
modifications: R1 spin-label side chain (cysteine derivatized with MTSL) at 187

binding result [2]: binds | binding result [3]: binds | binding result [1]: binds
B2: TonB_(ΔTMD) E203R1 (spin-labeled) (domain or fragment)
chain: not shown
modifications: R1 spin-label side chain (cysteine derivatized with MTSL) at 203
binding result (DEER): binds

binding result [1]: binds
B3: TonB_(ΔTMD) I224R1 (spin-labeled) (domain or fragment)
chain: not shown
modifications: R1 spin-label side chain (cysteine derivatized with MTSL) at 224
binding result (DEER): binds

Kd [4]: 61 nM | Kd [5]: 64 nM | Kd [6]: 26 nM | Kd [7]: 38 nM
B4: TonB_(ΔTMD) L194C labeled with BODIPY FL (domain or fragment)
chain: not shown
modifications: BODIPY FL N-(2-aminoethyl)maleimide on Cys194 (labeling efficiency ~75%)
